Values quoted from earlier work in patent US20260125483A1, “COMPOSITIONS OF IL-6/IL-6R ANTIBODIES AND METHODS OF USE THEREOF” (Tiziana Life Sciences PLC, priority 2020, published 2026).

Target: IL-6Rc (Homo sapiens, UniProt P05231+P08887)
Conditions: binding to gp130 to induce the signaling cascade; WO/2009/140348

IL-6Rc, sequence (P08887 20-468): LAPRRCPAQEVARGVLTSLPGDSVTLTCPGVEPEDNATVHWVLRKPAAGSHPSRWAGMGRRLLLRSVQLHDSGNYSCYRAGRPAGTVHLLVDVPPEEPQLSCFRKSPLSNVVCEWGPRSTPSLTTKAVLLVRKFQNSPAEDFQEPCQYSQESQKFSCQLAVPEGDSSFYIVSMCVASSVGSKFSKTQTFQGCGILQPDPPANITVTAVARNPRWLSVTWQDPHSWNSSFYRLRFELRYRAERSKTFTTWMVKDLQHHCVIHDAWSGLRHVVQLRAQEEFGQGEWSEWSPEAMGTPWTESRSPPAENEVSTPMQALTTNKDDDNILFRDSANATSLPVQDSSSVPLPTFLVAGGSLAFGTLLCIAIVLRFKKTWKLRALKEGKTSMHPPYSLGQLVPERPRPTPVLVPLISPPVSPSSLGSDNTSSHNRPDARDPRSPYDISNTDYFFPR
IL-6Rc, sequence (P05231 30-212): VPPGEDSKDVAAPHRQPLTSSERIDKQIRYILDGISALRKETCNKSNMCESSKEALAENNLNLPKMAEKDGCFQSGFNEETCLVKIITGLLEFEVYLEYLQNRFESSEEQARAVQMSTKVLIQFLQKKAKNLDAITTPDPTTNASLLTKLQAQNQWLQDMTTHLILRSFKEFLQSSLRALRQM

Row | Molecule | functional activity of IL-6Rc in vitro
1 | 39B9 VL1: IL-6R antibody, heavy chain variable region SEQ ID NO:2, light chain variable region SEQ ID NO: 4 (antibody, V domains shown, 3B9 VL1-VH amino acid sequence; 39B9 VL1-VL amino acid sequence) VH: QVQLVQSGAEVKKPGSSVKVSCKASGGTFSSYAISWVRQAPGQGLEWMGGIIPLFDTTKYAQQFQGRVTITADESTSTAYMELSSLRSEDTAVFYCARDRDILTDYYPMGGMDVWGQGTTVTVSS VL: AIQLTQSPSSLSASVGDRVTITCRASQGISSVLAWYQQKPGKAPKLLIYDASSLESGVPSRFSGSGSGTDFTLTISSLQPEDFATYYCQQSNSYPLTFGGGTKVEIKR | inhibit the functional activity of IL-6Rc
2 | 12A: IL-6R antibody, heavy chain variable region SEQ ID NO:8, light chain variable region SEQ ID NO: 10 (antibody, V domains shown, 12A VH amino acid sequence; 12A VL amino acid sequence) VH: QVQLVESWGGVVQPGRSLRLSCAASGFTFSNYDMYWVRQAPGKGLEWVAVILDDGNNNYYADSVKGRFTISRDNSKKKVYLQMNSLRAEDTAVYYCVRASPNWGLLDFWGQGTLVTVSS VL: EIVLTQSPSSLSASVGDRVTITCRASQGISSWLAWYQQKPGKAPKLLIYDASSLESGVPSRFSGSGSGTDFTLTISSLQPEDFATYYCQQFNSYPITFGQGTRLEIKR | inhibit the functional activity of IL-6Rc
3 | 39B9 VL5: IL-6R antibody, heavy chain variable region SEQ ID NO:2, light chain variable region SEQ ID NO: 6 (antibody, V domains shown, 3B9 VL1-VH amino acid sequence; 39B9 VL5-VL amino acid sequence) VH: QVQLVQSGAEVKKPGSSVKVSCKASGGTFSSYAISWVRQAPGQGLEWMGGIIPLFDTTKYAQQFQGRVTITADESTSTAYMELSSLRSEDTAVFYCARDRDILTDYYPMGGMDVWGQGTTVTVSS VL: DILMTQSPSSLSASVGDRVTITCRASQDISSWLAWYQQKPGKAPKLLIYDASSLESGVPSRFSGSGSGTDFTLTISSLQPEDFATYYCQQSNSYPLTFGGGTKVEIKR | inhibit the functional activity of IL-6Rc
4 | 5C: IL-6R antibody, heavy chain variable region SEQ ID NO: 12, light chain variable region SEQ ID NO: 14 (antibody, V domains shown, 5C VH amino acid sequence; 5C VL amino acid sequence) VH: QVQLVQSGGGVVQPGRSLRLSCAASGFIFSSYDMYWVRQAPGKGLEWVAVILYDGNNKYYADSVKGRFTISRDNSKNTVYLQMNSLRAEDTAVYYCVRASPNWGLFDFWGQGTLVTVSS VL: DIQMTQSPSSLSASVGDRVTITCRASQGISSDLAWYQQKPGKAPKLLMYDASSLESGVPSRFSGSGSGTDFTLTISSLQPEDFATYYCQQFNSYPITFGQGTRLEIKR | inhibit the functional activity of IL-6Rc
